Results reported in the supplement of paper PMC9428881.
± gives the standard error.

Experiment: background-corrected fluorescence of 3'-dye-labeled ssDNA relative to brightest sequence (3'-GCGCG) (fraction); higher = brighter dye fluorescence (less quenching)
Experimental: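 Single-stranded DNA is synthesized in situ on glass microarrays by 5'->3' photolithographic synthesis, with a Cy3 or Cy5 phosphoramidite coupled at the 3' end next to all 1024 permuted pentamers P1-P5. The construct is 5'-T5-(ACGT minus P5..P1 trinucleotides)-T15-P5P4P3P2P1-dye-3'; the dye is a 3' terminal modification, not part of the sequence. Arrays were scanned at 532 nm (Cy3) or 635 nm (Cy5), background from unlabeled oligos was subtracted, and values are averaged over 10 replicate features per array and at least 3 independent syntheses.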

Row | Sequence | background-corrected fluorescence (dye: Cy3 (3' terminal)) | background-corrected fluorescence (dye: Cy5 (3' terminal))
1 | TTTTTGCATCAGCAGCATGATTTTTTTTTTTTTTTTGTTC [CTTGT] | 0.433 ± 0.0082 | 0.31 ± 0.025
2 | TTTTTGCATCAGCAGCATGCTTTTTTTTTTTTTTTTGTTA [ATTGT] | 0.51 ± 0.02 | 0.415 ± 0.023
3 | TTTTTGCATCAGCATCAGCATTTTTTTTTTTTTTTTGTGT | 0.603 ± 0.025 | 0.497 ± 0.026
4 | TTTTTGCATCAGCATCATCATTTTTTTTTTTTTTTTGTGG [GGTGT] | 0.585 ± 0.06 | 0.511 ± 0.029
5 | TTTTTGCATCAGCATCATGATTTTTTTTTTTTTTTTGTGC [CGTGT] | 0.494 ± 0.0099 | 0.402 ± 0.027
6 | TTTTTGCATCAGCATCATGCTTTTTTTTTTTTTTTTGTGA [AGTGT] | 0.68 ± 0.026 | 0.564 ± 0.039
7 | TTTTTGCATCAGCATGAGCATTTTTTTTTTTTTTTTGTCT [TCTGT] | 0.48 ± 0.021 | 0.367 ± 0.028
8 | TTTTTGCATCAGCATGATCATTTTTTTTTTTTTTTTGTCG [GCTGT] | 0.552 ± 0.029 | 0.392 ± 0.023
9 | TTTTTGCATCAGCATGATGATTTTTTTTTTTTTTTTGTCC [CCTGT] | 0.401 ± 0.014 | 0.289 ± 0.018
10 | TTTTTGCATCAGCATGATGCTTTTTTTTTTTTTTTTGTCA [ACTGT] | 0.487 ± 0.069 | 0.439 ± 0.08
11 | TTTTTGCATCAGCATGCGCATTTTTTTTTTTTTTTTGTAT [TATGT] | 0.53 ± 0.024 | 0.418 ± 0.031
12 | TTTTTGCATCAGCATGCTCATTTTTTTTTTTTTTTTGTAG [GATGT] | 0.535 ± 0.015 | 0.443 ± 0.064
13 | TTTTTGCATCAGCATGCTGATTTTTTTTTTTTTTTTGTAC [CATGT] | 0.471 ± 0.041 | 0.344 ± 0.022
14 | TTTTTGCATCAGCATGCTGCTTTTTTTTTTTTTTTTGTAA [AATGT] | 0.596 ± 0.019 | 0.478 ± 0.03
15 | TTTTTGCATCATCAGCAGCATTTTTTTTTTTTTTTTGGTT | 0.624 ± 0.019 | 0.477 ± 0.037
16 | TTTTTGCATCATCAGCATCATTTTTTTTTTTTTTTTGGTG [GTGGT] | 0.568 ± 0.028 | 0.456 ± 0.022
17 | TTTTTGCATCATCAGCATGATTTTTTTTTTTTTTTTGGTC [CTGGT] | 0.478 ± 0.024 | 0.387 ± 0.04

Row | Sequence | background-corrected fluorescence (dye: Cy3 (3' terminal)) | background-corrected fluorescence (dye: Cy5 (3' terminal))
18 | TTTTTGCATCATCAGCATGCTTTTTTTTTTTTTTTTGGTA [ATGGT] | 0.609 ± 0.0091 | 0.492 ± 0.033
19 | TTTTTGCATCATCATCAGCATTTTTTTTTTTTTTTTGGGT | 0.686 ± 0.028 | 0.586 ± 0.044
20 | TTTTTGCATCATCATCATCATTTTTTTTTTTTTTTTGGGG [GGGGT] | 0.66 ± 0.023 | 0.613 ± 0.042
21 | TTTTTGCATCATCATCATGATTTTTTTTTTTTTTTTGGGC [CGGGT] | 0.591 ± 0.026 | 0.516 ± 0.027
22 | TTTTTGCATCATCATCATGCTTTTTTTTTTTTTTTTGGGA [AGGGT] | 0.757 ± 0.01 | 0.725 ± 0.054
23 | TTTTTGCATCATCATGAGCATTTTTTTTTTTTTTTTGGCT [TCGGT] | 0.549 ± 0.017 | 0.442 ± 0.053
24 | TTTTTGCATCATCATGATCATTTTTTTTTTTTTTTTGGCG [GCGGT] | 0.631 ± 0.026 | 0.516 ± 0.065
25 | TTTTTGCATCATCATGATGATTTTTTTTTTTTTTTTGGCC [CCGGT] | 0.46 ± 0.032 | 0.369 ± 0.03
26 | TTTTTGCATCATCATGATGCTTTTTTTTTTTTTTTTGGCA [ACGGT] | 0.562 ± 0.015 | 0.472 ± 0.032
27 | TTTTTGCATCATCATGCGCATTTTTTTTTTTTTTTTGGAT [TAGGT] | 0.617 ± 0.023 | 0.458 ± 0.036
28 | TTTTTGCATCATCATGCTCATTTTTTTTTTTTTTTTGGAG [GAGGT] | 0.589 ± 0.02 | 0.494 ± 0.035
29 | TTTTTGCATCATCATGCTGATTTTTTTTTTTTTTTTGGAC [CAGGT] | 0.5012 ± 0.0043 | 0.404 ± 0.046
30 | TTTTTGCATCATCATGCTGCTTTTTTTTTTTTTTTTGGAA [AAGGT] | 0.653 ± 0.024 | 0.557 ± 0.029
31 | TTTTTGCATCATGAGCAGCATTTTTTTTTTTTTTTTGCTT [TTCGT] | 0.514 ± 0.029 | 0.384 ± 0.038
32 | TTTTTGCATCATGAGCATCATTTTTTTTTTTTTTTTGCTG [GTCGT] | 0.463 ± 0.018 | 0.358 ± 0.022
33 | TTTTTGCATCATGAGCATGATTTTTTTTTTTTTTTTGCTC [CTCGT] | 0.374 ± 0.037 | 0.296 ± 0.036
